The values below come from publication PMC3783171, “Sulfolobus chromatin proteins modulate strand displacement by DNA polymerase B1”.

For data set [1], the target named is T1, Cren7 (Sulfolobus solfataricus, UniProt Q97ZE3 1-60).
T1 sequence: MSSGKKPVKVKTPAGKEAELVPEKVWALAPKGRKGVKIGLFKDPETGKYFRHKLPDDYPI
Briefly: EMSA; 4 mM Mg2+, 25 C; EMSA: 50 mM Tris-HCl pH 8.0, 2 mM beta-mercaptoethanol, 0.1 mg/ml BSA, 4 mM MgCl2, 5% glycerol, 2 nM probe, 10 min at 25 C (room temperature), 5% PAGE in 0.1x TBE; Tm: 10 mM potassium phosphate pH 7.0, 20-90 C. To be noted: protein: recombinant; label: 32P on D30; blunt. (In general: Mobility shift assays separate free from complexed probe on a gel.)

The target in data set [2] is T2, Sso7d (Sulfolobus solfataricus, UniProt P39476 1-64).
T2 sequence: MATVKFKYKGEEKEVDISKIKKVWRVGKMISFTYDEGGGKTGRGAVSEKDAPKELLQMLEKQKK
Briefly: EMSA; apparent Kd; 4 mM Mg2+, 25 C; EMSA: 50 mM Tris-HCl pH 8.0, 2 mM beta-mercaptoethanol, 0.1 mg/ml BSA, 4 mM MgCl2, 5% glycerol, 2 nM probe, 10 min at 25 C (room temperature), 5% PAGE in 0.1x TBE; Tm: 10 mM potassium phosphate pH 7.0, 20-90 C. The following applies: protein: recombinant, blunt.

Data set [3] deals with T1, Cren7. The experiment in a line: thermal denaturation (A260); EMSA: 50 mM Tris-HCl pH 8.0, 2 mM beta-mercaptoethanol, 0.1 mg/ml BSA, 4 mM MgCl2, 5% glycerol, 2 nM probe, 10 min at 25 C (room temperature), 5% PAGE in 0.1x TBE; Tm: 10 mM potassium phosphate pH 7.0, 20-90 C. The following applies: protein: recombinant; blunt.

B1: 30-bp dsDNA (D30/Com30) (dsDNA)
DNA 1: TGCTTCCTTCAATGTGCTGGGATCCTACAA
DNA 2: TTGTAGGATCCCAGCACATTGAAGGAAGCA
In the case of B1, the binding result in data set [1] was “binds”. In data set [2] (label: 32P on D30), the Kd came to 0.15 µM.

B2: 15-bp dsDNA (D15/Com15) (dsDNA)
DNA 1: TGCATCCTTCAAGAC
DNA 2: GTCTTGAAGGATGCA
B2: the binding result in data set [3] was “binds”.

B3: 30-bp RNA:DNA hybrid (R30/Com30) (DNA:RNA)
RNA: UGCUUCCUUCAAUGUGCUGGGAUCCUACAA
DNA: B1 DNA 2
modifications: R30 strand is RNA
Regarding B3, the Kd in data set [2] (label: 32P on R30) stood at 0.5 µM.
